Reference: patent publication US20180057604A1 (Genentech, published 2018)
Where a chain is given by its changes, count along the chain named. Names may count otherwise.

T1: cyno TfR extracellular domain (analogous construct to human TfR ecd) (cynomolgus monkey, UniProt Q5RDH6 87-760 (Pongo abelii entry))
T1 construct: also called cynoTfR ecd
T1 chain: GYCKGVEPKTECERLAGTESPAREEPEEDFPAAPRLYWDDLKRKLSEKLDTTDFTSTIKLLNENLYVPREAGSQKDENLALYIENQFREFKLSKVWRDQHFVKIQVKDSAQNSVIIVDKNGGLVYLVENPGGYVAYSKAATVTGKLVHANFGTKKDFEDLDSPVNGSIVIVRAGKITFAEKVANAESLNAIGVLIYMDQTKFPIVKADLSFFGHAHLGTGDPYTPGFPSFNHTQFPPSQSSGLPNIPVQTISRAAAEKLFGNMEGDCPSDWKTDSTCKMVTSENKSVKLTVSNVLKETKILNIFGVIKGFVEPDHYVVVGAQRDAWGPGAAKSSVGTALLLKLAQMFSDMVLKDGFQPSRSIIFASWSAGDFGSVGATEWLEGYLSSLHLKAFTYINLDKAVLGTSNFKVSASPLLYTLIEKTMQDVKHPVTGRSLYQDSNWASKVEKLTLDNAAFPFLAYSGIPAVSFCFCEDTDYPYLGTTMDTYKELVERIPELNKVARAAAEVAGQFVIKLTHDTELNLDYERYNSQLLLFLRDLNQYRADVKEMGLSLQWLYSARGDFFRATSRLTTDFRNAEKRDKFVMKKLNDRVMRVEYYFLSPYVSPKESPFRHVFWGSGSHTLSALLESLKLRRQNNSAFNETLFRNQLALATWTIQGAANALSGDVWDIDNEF

B1: H90A (antibody, V domains shown)
VH: EVQLVQSGAEVKKPGASVKVSCKASGYTFTSYWMHWVRQAPGQRLEWIGEINPTNGRTNYIEKFKSRATLTVDKSASTAYMELSSLRSEDTAVYYCARGTRAYHYWGQGTMVTVSS
VL: DIQMTQSPSSLSASVGDRVTITCRASDNLYSNLAWYQQKPGKSPKLLVYDATNLADGVPSRFSGSGSGTDYTLTISSLQPEDFATYYCQAFWGTPLTFGQGTKVEIK
notes: also called 15G11.v5 H90A (CDR-L3) IgG
B2: T97A (antibody, V domains shown)
VH: B1 VH
VL: B1 VL with A90H, T97A
notes: also called 15G11.v5 T97A (CDR-L3) IgG
B3: T94A (antibody, V domains shown)
VH: B1 VH
VL: B1 VL with A90H, T94A
notes: also called 15G11.v5 T94A (CDR-L3) IgG
B4: H101A (antibody, V domains shown)
VH: B1 VH with H104A
VL: B1 VL with A90H
notes: also called 15G11.v5 H101A (CDR-H3) IgG; copies: 2 + 2
B5: L96A (antibody, V domains shown)
VH: B1 VH
VL: B1 VL with A90H, L96A
notes: also called 15G11.v5 L96A (CDR-L3) IgG
B6: 16G4 (antibody, V domains shown)
VH: QVQLQQPGAELVKPGASVKLSCKASGYTFTSYWMHWVKQRPGQGLEWIGEINPSNGRTNYNETFKSKATLTVDKSSSTAYMQLSSLTSEDSAVYYCARGTRAYHYWGQGTSVTVSS
VL: DIQMTQSPASLSVSVGETVTITCRASDNIYSNLAWYQQKQGKSPQLLVYAVTNLADGVPSRFSGSGSGTQYSLKINSLQSEDFGSYYCQHFWGTPLTFGAGTKLELK
notes: Mouse hybridoma antibody; also called clone 16G4
B7: 13D4 (antibody, V domains shown)
VH: QVQLQQSGAELMKPGASVKISCKAAGYTFSNYWIEWVKQRPGHGLEWIGEILPGSGSTKYNEKFKGKATFTADTSSNTAYMQLSSLTSEDSAVYYCARRGGYGYDGEFAYWGQGTLVTVSA
VL: DIQMTQTTSSLSASLGDRVTINCRAGQDITNYLNWFQQKPDGTVKLLIYYTSRLHSGVPSRFSGSGSGTDYSLTITNLEQEDIATYFCQQANTLPYTFGGGTKLEIK
notes: Mouse hybridoma antibody; also called clone 13D4
B8: 8A2 (antibody, V domains shown)
VH: QVQLQQSGPELVRPGVSVKISCKGSGYTFTDYGMHWVKQSHAKSLEWIGVISPYSGRTNYNQNFKGKATMTVDKSSSTAYLELARLTSEDSAIYYCARGLSGNYVVDYWGQGTSVTVSS
VL: DIVLTQSPASLAVSLGQRATISCRASESVDSYGNSFMHWYQQKPGQPPKLLIYRASNLESGIPARFSGSGSRTDFTLTINPVEADDVATYYCQQSNEGPPTFGGGTKLEIK
notes: Mouse hybridoma antibody; also called clone 8A2
B9: 1B12 (antibody, V domains shown)
VH: EVKLVESGGGLVQPGGFLKLSCATSGFTFSDYYMYWVRQTPEKRLEWVASISNGGDNTYYPDTVKGRFTISRDNAKNTLYLQMSRLKSEDTAMYYCARQGALYDGYYRGAMDYWGQGTSVTVSS
VL: QIVLTQSPAIMSASLGGRVTMTCTTSSSVPSSYFHWYQQKPGSSPKLWIYSTSNLASGVPARFSGSGSGTSYSLTISSMEAEDAATYYCHQYHRSPFTFGSGTKLEIK
notes: Mouse hybridoma antibody; also called clone 1B12
B10: 7G7 (antibody, V domains shown)
VH: QVQLQQPGSELVRPGASVKLSCKASGYTFTSYWMHWVKQRHGQGLEWIGNIYPGSGSTKYDERFKSKGTLTVDTSSSTAYMHLSSLTSEDSAVYYCTRGGYDSRAWFAYWGQGTLVTVSA
VL: DIVLTQSPASLAVSLGQRATISCRARQSVSTSSYSFMHWYRQKAGQPPKLLIKYASIQESGVPARFSGSGSGTDFTLNILPVEEEDTATYYCQHTWEIPFTFGSGTKLEIK
notes: Mouse hybridoma antibody; also called clone 7G7

Molecular target: T1, cyno TfR extracellular domain …
Assay: ELISA, IgG
Method: (§1) Affinity variants were generated by making individual alanine substitutions in CDR-L3 or CDR-H3 using standard techniques. These variants were screened as IgG by ELISA and SPR to identify positions important for binding to human and cyno TfR; the monovalent affinity of selected variants as Fab was also determined. […] Plates were washed with PBS/0.05% Tween 20 and blocked using Superblock blocking buffer in PBS (Thermo Scientific, Hudson, N.H.). Supernatants containing expressed IgG were diluted serially 1:5 and added to the plate for 1 h. […] Plates were washed with PBS/0.05% Tween 20 and 1:1000 diluted HRP-Goat-anti kappa (Southern Biotech) was added the plate and incubated for 1 h at room temperature. Plates were washed with PBS/0.05% Tween 20 and detected using TMB substrate (BioFX Laboratories, Owings Mills).

| EC50 | Binder |
| --- | --- |
| 0.024 µg/mL | B1 |
| 0.0157 µg/mL | B2 |
| 0.0293 µg/mL | B3 |
| 0.0216 µg/mL | B4 |
| 0.018 µg/mL | B5 |

Molecular target: T2, human TfR extracellular domain with N-terminal His tag (human, UniProt P02786 89-760)
T2 construct: Biotinylated in some assays; also called huTfR; HuTfR
Assay: ELISA, IgG
Method: as §1

T2 sequence (P02786 89-760 G142S): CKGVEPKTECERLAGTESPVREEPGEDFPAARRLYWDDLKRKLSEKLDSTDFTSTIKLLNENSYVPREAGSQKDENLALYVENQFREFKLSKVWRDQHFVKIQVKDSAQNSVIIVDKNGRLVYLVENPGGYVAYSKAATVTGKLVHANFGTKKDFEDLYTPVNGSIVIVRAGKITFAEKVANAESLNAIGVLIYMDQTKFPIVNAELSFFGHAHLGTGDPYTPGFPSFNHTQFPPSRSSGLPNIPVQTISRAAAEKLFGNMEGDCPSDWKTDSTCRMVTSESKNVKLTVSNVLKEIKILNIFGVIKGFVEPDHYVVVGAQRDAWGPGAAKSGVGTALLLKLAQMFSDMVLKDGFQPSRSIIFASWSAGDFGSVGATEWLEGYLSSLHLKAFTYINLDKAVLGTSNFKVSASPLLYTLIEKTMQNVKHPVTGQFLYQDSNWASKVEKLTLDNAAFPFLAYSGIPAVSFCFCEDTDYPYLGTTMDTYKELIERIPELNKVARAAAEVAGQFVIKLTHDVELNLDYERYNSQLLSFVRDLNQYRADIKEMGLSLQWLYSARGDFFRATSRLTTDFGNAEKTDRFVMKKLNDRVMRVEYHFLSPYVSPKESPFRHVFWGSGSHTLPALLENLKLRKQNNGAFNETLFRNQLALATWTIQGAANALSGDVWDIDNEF

| EC50 | Binder |
| --- | --- |
| 0.013 µg/mL | B1 |
| 0.0134 µg/mL | B2 |
| 0.0168 µg/mL | B3 |
| 0.0142 µg/mL | B4 |
| 0.0099 µg/mL | B5 |

Molecular target: T1, cyno TfR extracellular domain …
Assay: SPR, IgG
Method: (§2) Antibody affinities were measured using surface plasmon resonance (“SPR”) (Biacore™, GE Healthcare). Anti-His antibody (Qiagen) was coupled onto four different flow cells of a BIACORE™ CM5 sensor chip (Biacore, Inc., Piscataway, N.J.) at between 6000 and 8000 RU. Immobilization was achieved by random coupling through amino groups using a protocol provided by the manufacturer. 10×HBS-P (Biacore, Inc., Piscataway, N.J.) was diluted in water and served as the dilution and running buffer. Purified human or cyno TfR was captured, followed by a 3-fold dilution series of IgG or Fab that was injected at a flow rate of 30 ml/min using the single cycle kinetics method. Affinity constants were determined using a simple 1:1 Langmuir binding model or using a steady state model when kₒₙ or koff was beyond the detection limit. The equilibrium dissociation constant (KD) was calculated as the ratio of association rate constant (kₒₙ) and dissociation rate constant (koff).

| Kd | Binder |
| --- | --- |
| 22.4 nM | B6 |
| 8.47 nM | B7 |
| 0.904 nM | B8 |
| 43.4 nM | B9 |
| 262 nM | B10 |

Molecular target: T2, human TfR extracellular domain with …
Assay: SPR, IgG
Method: as §2

| Kd | Binder |
| --- | --- |
| 3.4 nM | B6 |
| 9.5 nM | B7 |
| 0.179 nM | B8 |
| 2.03 nM | B9 |
| 45.7 nM | B10 |
